Measurements reported in publication PMC7118729.

Biological target: SARS-CoV non-structural protein 15 (Nsp15) [change] (SARS-CoV)
Assay: SEC

For “SARS-CoV non-structural protein 15 (Nsp15) [change] (enzyme)”, the stoichiometry N was 3.
